± gives the uncertainty stated by the source.

B1: Intersectin-1, residues 1156 to 1213; numbered along this chain, Q15811 (parent)
chain: AVCQVIGMYDYTAQNDDELAFNKGQIINVLNKEDPDWWKGEVNGQVGLFPSNYVKLTT

The variants in this data set derive from B1. Nature of the data set: abundance fitness (aPCA) (normalised: wild type 0, dead -1); higher = more abundant; growth selection in yeast, the domain comes from the species named. The note with it: Homo sapiens.
With Y9L, the abundance fitness came to 0.263 ± 0.092. For Y9F, the abundance fitness amounted to 0.259 ± 0.13. In the case of Y9G, the abundance fitness was -0.164 ± 0.088.

Take F49W: the abundance fitness is -0.76 ± 0.096.

F49M: the abundance fitness was -0.725 ± 0.12. F49V: the abundance fitness was -0.391 ± 0.078. Under F49Q stands -0.661 ± 0.15. As to F49E, the abundance fitness is -0.816 ± 0.11. Under D36E stands -0.196 ± 0.12; under D36P, -0.53 ± 0.14. The value for D36R was -0.009 ± 0.084; that for D36K was 0.071 ± 0.13; that for D36C was -0.117 ± 0.14. Turning to D36N, the abundance fitness is -0.203 ± 0.15. Under D36M stands -0.018 ± 0.13; under D36F, -0.175 ± 0.14. The value for G47I was -0.846 ± 0.17; that for G47R was -0.786 ± 0.098; that for G47T was -0.941 ± 0.18.

Regarding G47Q, the abundance fitness is -0.6 ± 0.24.

For the variant G47E, the abundance fitness is -0.853 ± 0.15. Under G47A stands -0.755 ± 0.12; under G47K, -0.582 ± 0.16. Under V5R stands -0.831 ± 0.12. The value for V5K was -0.708 ± 0.18; that for V5H was -0.644 ± 0.32. Turning to V5P, the abundance fitness is -0.94 ± 0.18.

V5E: the abundance fitness was -0.843 ± 0.28. Under V5S stands -0.813 ± 0.12. The value for V5M was -0.737 ± 0.17; that for T57C was -0.115 ± 0.12; that for T57A was -0.059 ± 0.083. The value for T57E was -0.519 ± 0.16; that for T57N was -0.028 ± 0.17; that for T57I was -0.13 ± 0.14. As to T57K, the abundance fitness was -0.024 ± 0.21. The value for N52F was -0.784 ± 0.33. Under N52L stands -0.561 ± 0.12. Take N52H: the abundance fitness is -0.469 ± 0.15.

As for N52A, the abundance fitness was -0.183 ± 0.1. Under N52Q stands -0.147 ± 0.13; under N52V, -0.439 ± 0.11.

With N52I, the abundance fitness was -0.364 ± 0.24. Under N52T stands -0.067 ± 0.13; under A13Y, -0.574 ± 0.2; under A13S, -0.455 ± 0.1. Under A13P stands -0.059 ± 0.1; under A13Q, -0.676 ± 0.14.

In the case of A13T, the abundance fitness is -0.336 ± 0.11.

As for A13M, the abundance fitness is -0.853 ± 0.18.

In the case of L19Y, the abundance fitness is -1.04 ± 0.28. The value for L19S was -0.848 ± 0.14; that for L19C was -0.599 ± 0.14; that for L19G was -0.726 ± 0.099. The value for L19I was -0.357 ± 0.2; that for L19A was -0.9 ± 0.15; that for L19Q was -0.869 ± 0.21. Under D16R stands -0.293 ± 0.074; under D16H, -0.614 ± 0.2.

For D16Y, the abundance fitness was -0.588 ± 0.21.

For D16S, the abundance fitness was -0.296 ± 0.089. Under D16L stands -0.3 ± 0.088; under D16W, -0.726 ± 0.12. For D34S, the abundance fitness was -0.221 ± 0.098. The value for D34I was -0.974 ± 0.25; that for D34P was -0.543 ± 0.24.

Consider D34H, for which the abundance fitness is -0.158 ± 0.17. Consider D34Q, for which the abundance fitness was -0.489 ± 0.19. The value for K39V was -0.448 ± 0.48; that for L56W was -0.405 ± 0.11; that for L56P was -0.121 ± 0.14. Under L56A stands 0.08 ± 0.093; under L56D, -0.106 ± 0.15. The value for V42Y was 0.042 ± 0.19.

With V42P, the abundance fitness was -0.72 ± 0.26. On to V42L, for which the abundance fitness was 0.018 ± 0.1. The value for V42R was -0.274 ± 0.1; that for V42H was -0.237 ± 0.17; that for N22I was -0.286 ± 0.18. Under N22M stands 0.02 ± 0.14. N22P: the abundance fitness was -0.062 ± 0.14. The value for N22D was 0.164 ± 0.15. The value for N22F was -0.432 ± 0.13. Under N22S stands 0.009 ± 0.084; under N22G, -0.006 ± 0.074.

For the variant N22K, the abundance fitness was -0.027 ± 0.16. The value for N22Y was -0.422 ± 0.14; that for N22A was 0.157 ± 0.099; that for Q45F was -0.387 ± 0.17. As to Q45G, the abundance fitness was -0.662 ± 0.11. Consider Q45Y, for which the abundance fitness is -0.411 ± 0.16. With Q45L, the abundance fitness was -0.28 ± 0.1. Under Q45C stands -0.03 ± 0.15; under Q45R, -0.043 ± 0.089. Regarding Q45N, the abundance fitness came to 0.109 ± 0.16.

As for W37C, the abundance fitness is -0.588 ± 0.18.

Take W37H: the abundance fitness is -0.887 ± 0.19. Turning to W37L, the abundance fitness is -0.339 ± 0.085. Regarding W37A, the abundance fitness was -0.585 ± 0.11. Under G7M stands -0.681 ± 0.22; under G7W, -0.775 ± 0.15. The value for G7F was -0.739 ± 0.19. Regarding G7S, the abundance fitness is 0.309 ± 0.083. Under G7H stands -0.466 ± 0.38. Under G7P stands -0.519 ± 0.29; under A1R, -0.1 ± 0.35; under A1E, -0.082 ± 0.17. With A1D, the abundance fitness is -0.322 ± 0.37. The value for N31Q was -0.099 ± 0.13; that for N31T was -0.159 ± 0.11; that for N31V was -0.313 ± 0.11. Under N31W stands -0.287 ± 0.12.

Consider N31G, for which the abundance fitness was -0.076 ± 0.088. The value for N31I was -0.559 ± 0.27. Under N31P stands -0.833 ± 0.18.

Take N31Y: the abundance fitness is -0.525 ± 0.27. Under E18I stands -0.853 ± 0.27; under E18Q, 0.036 ± 0.14. Under E18G stands -0.317 ± 0.091; under E18M, -0.696 ± 0.21. Turning to E18R, the abundance fitness was -0.819 ± 0.12. Take E18C: the abundance fitness is -0.309 ± 0.14.

In the case of E18H, the abundance fitness was -0.208 ± 0.18. Under E18T stands -0.908 ± 0.25; under I26F, -0.523 ± 0.3; under I26P, -0.561 ± 0.23. The value for I26K was -0.084 ± 0.19; that for I26Q was -0.304 ± 0.22; that for I26S was -0.554 ± 0.14. I26M: the abundance fitness is -0.462 ± 0.2. With I26H, the abundance fitness was -0.332 ± 0.26. For the variant G24M, the abundance fitness is -0.693 ± 0.17. The value for G24N was -0.348 ± 0.19. The value for G24T was -0.599 ± 0.16; that for G24V was -0.895 ± 0.13; that for L48Y was -0.056 ± 0.14. The value for L48V was -0.068 ± 0.079.

Turning to L48E, the abundance fitness was -0.784 ± 0.14. As to L48R, the abundance fitness was -0.07 ± 0.071. As to L48K, the abundance fitness was -0.055 ± 0.11. Under V54E stands -0.931 ± 0.33.

Consider V54I, for which the abundance fitness was -0.773 ± 0.16. The value for V54W was -0.762 ± 0.14. The value for V54S was -0.874 ± 0.12; that for V54K was -0.906 ± 0.24; that for V54Q was -0.904 ± 0.22. Consider V54N, for which the abundance fitness was -0.758 ± 0.21.

Take V54D: the abundance fitness was -0.943 ± 0.31. The value for A20W was -0.415 ± 0.1; that for A20M was -0.545 ± 0.15; that for A20E was -0.149 ± 0.13. The value for A20L was -0.796 ± 0.13; that for V29D was -0.739 ± 0.14; that for V29I was -0.617 ± 0.16. Under V29C stands -0.219 ± 0.13. Regarding V29K, the abundance fitness was -0.699 ± 0.19.

Regarding T12L, the abundance fitness is -0.369 ± 0.095.

With T12A, the abundance fitness is -0.075 ± 0.092. Regarding T12D, the abundance fitness is -0.203 ± 0.11. Under T12Q stands -0.345 ± 0.18. The value for T12K was -0.178 ± 0.18; that for P50C was -0.615 ± 0.19. Under P50Q stands -1.06 ± 0.26; under P50M, -0.799 ± 0.22; under P50V, -0.929 ± 0.18.

For P50H, the abundance fitness was -0.973 ± 0.3. Under P50W stands -0.713 ± 0.14.
